Experimental data: the supplement of paper PMC9170038

Tested on: MS2 coat protein
Test: apparent KD of MS2 coat protein; designed switch direction (-1 OFF switch, 1 ON switch): -1; higher = weaker reporter binding
Method in brief: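 Normalised cluster fluorescence was curve-fitted, and each design's median over clusters is its apparent KD. Before this, SNAP-549-labelled MS2 coat protein was titrated from 0.7 or 1.5 nM, doubling to 3 µM, over RNA switches transcribed on Illumina chips by stalled E. coli RNA polymerase. Titrations had no input, 200 uM small-molecule ligand, or an oligonucleotide input, and steps lasted 0.8–1.5 h (lowest) to 10–20 min (highest).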

[1] = Eterna round: R95, input ligand: FMN 200 uM
[2] = Eterna round: R95, input ligand: microRNA oligo, concentration not stated
[3] = Eterna round: R95, input ligand: none
[4] = input ligand: microRNA oligo, concentration not stated

Row | Sequence | apparent KD of MS2 coat protein (input ligand: FMN 200 uM) [nM] | apparent KD of MS2 coat protein (input ligand: none) [nM] | also measured
1 | CAUGCACAUGAGGAUCACCCAUGUGAGGAUAUUUAGCGUCAGUAAUCAAUAGACAGCAGAAGAAGGCACCUGGU [Eternabot (L2) Solution 73] (Eterna round: R97, puzzle: Exclusion 1) | 35 | 29.4 | 
2 | CAUGCUUCGGCAUGUACAAGCUUUUUGCUCGUCUUAUUAACAUGAGGAUCACCCAUGUACAAGAGACCUCAUGUAUU [Sensor v3 - turn-off variant 2 - 11] (puzzle: Sensor v3, turn-off variant 2) |  |  | apparent KD of MS2 coat protein [1]: 293 nM; apparent KD of MS2 coat protein [2]: 22.9 nM; apparent KD of MS2 coat protein [3]: 338 nM
3 | CAUUAUGUUGAGGAUAUGCGCCGGAAAACUGACGCAGAAGGCGACACAUGAGGAUCACCCAUGUCAGUUCGCGA [salish99_ex6_r004_424] (Eterna round: R97, puzzle: Exclusion 6) | 10.6 | 10.6 | 
4 | CAUUAUUAUCGAGGAUAUCCUAUUGUAAUUCUGGGAGAAGGCGGACUCAACAUGAGGAUCACCCAUGUAAGACGGGUGCUAGAG [Ex NG1 #24] (Eterna round: R96, puzzle: Exclusion NG 1) | 306 | 276 | apparent KD of MS2 coat protein [4]: 236 nM
5 | CAUUUGUAAGGAUAUGCACCGAUCUCCGAAAGGAGAUCGGUGCAGAAGGUACAUGAGGAUCACCCAUGUUGAUG [Mod of Brourd 11 - Jieux - Exclusion 4] (Eterna round: R97, puzzle: Exclusion 4) | 218 | 33.6 | 
6 | CCAACUAAUUAGGAUAUUAAGGACAUCAGUAAGUAAGAAGGGAUUACAUGAGGAUCACCCAUGUGGUCCUCGGG [Eternabot (L2) Solution 57] (Eterna round: R97, puzzle: Exclusion 6) | 226 | 147 | 
7 | CCAAGCUUAUUCAUUAACCACAUGAGGAUCACCCAUGUAUAGGCAAUUAUGACUGGGCAAUGUGGUGCUCGUCUUAU [Sensor-V1 #28] (Eterna round: R97, puzzle: Sensor, turn-off variant 1) | 39.5 | 41.3 | 
8 | CCAGCGGACAAAGGAUAUUGCGGUGACCGGCUCGGCGUACCGAGCCUACAUGAGGAUCACCCAUGUAAGAAGGUUGUCGUAGGA [Mat - Exclusion NG 2 - Mod of JL - D73] (Eterna round: R96, puzzle: Exclusion NG 2) | 56.1 | 19.5 | apparent KD of MS2 coat protein [4]: 13.2 nM
9 | CCAGCGUAUGUGAGGAUAUGCUGGUCCUUGGAUCAGCAGAAGGCACAUGAGGAUCACCCAUGUGAGAGCGUUGG [JL bmx4 3.37] (Eterna round: R96, puzzle: Brourd's mod of Exclusion 4) | 187 | 30.4 | apparent KD of MS2 coat protein [4]: 25.6 nM
10 | CCAGCGUAUGUGAGGAUAUGCUGGUCCUUGGAUCAGCAGAAGGCACAUGAGGAUCACCCAUGUGAGAGCGUUGG [JL bmx4 3.37] (puzzle: Brourd's mod of Exclusion 4) |  |  | apparent KD of MS2 coat protein [2]: 21.4 nM
11 | CCAGGAAGGCAGGAUAUCCAAAGCCGUCCCGGCGGAGAAGGGCUGACUUGAGGAUCACCCAAGUGAUGCCUAAC [Aratquve] (Eterna round: R97, puzzle: Exclusion 6) | 15.2 | 14.8 | 
12 | CCAUAGGGAGGAUAUCCAAUAUAUGACAUGAGGAUCACCCAUGUUUCCACUCGUACCUCCGGAGAAGGCCCAUAAC [Ex5 #8] (Eterna round: R97, puzzle: Exclusion 5) | 24.4 | 21.4 | 
13 | CCAUGUCCGGAGGAUAUGCGCAGACUUACUGCAGCAGAAGGUUGGACUUGAGGAUCACCCAAGUGACCAUUUGU [Esrebionra] (Eterna round: R97, puzzle: Exclusion 6) | 445 | 36 | 
14 | CCCAAAGGGACAAGCUUUUACAUGAGGAUCACCCAUGUUUUGGGAGCUCGUCUUAUGGGCCCGGGAAACCCGGGCCC [-38, -58.7 kcal, A 22%] (Eterna round: R97, puzzle: Sensor, turn-off variant 1) | 17.1 | 17.2 | 
15 | CCCAGAGCGUAAGGAUAUACAUGAGGAUCACCCAUGUCUACAAUAAUAGUACUAUAUGAAGUCGUGUAGAAGGUACGCGCAGGU [Eternabot solution 46] (Eterna round: R96, puzzle: Exclusion NG 2) |  |  | apparent KD of MS2 coat protein [4]: 30.7 nM
16 | CCCAGUUAGAGAGGAUAUCGUACAUGAGGAUCACCCAUGUAAUAAAUGAGGAUUUCGGGUGUCUACGAGAAGGCUCGGAUAGGC [Ostracism 30 - Jieux - Exclusion NG 2] (Eterna round: R96, puzzle: Exclusion NG 2) | 75.8 | 35.9 | apparent KD of MS2 coat protein [4]: 27.1 nM
17 | CCCAGUUAGUGAGGAUAUCUUACAUGAGGAUCACCCAUGUAAUAAAUGAGGAUUUCGGGUGUCUAAGAGAAGGCACGGAUAGGC [Ostracism 25 - Jieux - Exclusion NG 2] (Eterna round: R96, puzzle: Exclusion NG 2) | 27.1 | 27 | apparent KD of MS2 coat protein [4]: 16.7 nM

Row | Sequence | apparent KD of MS2 coat protein (input ligand: FMN 200 uM) [nM] | apparent KD of MS2 coat protein (input ligand: none) [nM] | also measured
18 | CCCAUGUCAGGAUAUCUAAGAGAGGAUCAGCCCUCUCCUCCGGAGAAGGGACAUGAGGAUCACCCAUGUAAAAC [Zasorequ] (puzzle: Exclusion 4) |  |  | apparent KD of MS2 coat protein [1]: 30.5 nM; apparent KD of MS2 coat protein [2]: 145 nM; apparent KD of MS2 coat protein [3]: 204 nM
19 | CCCAUGUCAGGAUAUUAAUUGAGCAGAAAGCCCUGUUCACUUGAGAAGGGACAUGAGGAUCACCCAUGUAAAAC [Belexeedte] (Eterna round: R97, puzzle: Exclusion 4) | 19.2 | 507 | 
20 | CCCGAGUUAGGAUAUAAACCAAAGUAACCAGCAGCUUAGCUUUAGAAGGAACAUGAGGAUCACCCAUGUGGUCU [Eternabot (L2) Solution 70] (Eterna round: R97, puzzle: Exclusion 4) | 119 | 107 | 
21 | CCCGUGUUAGGAUAUACGGCACACCCGCCAGCGGGUAUAUAGUAGAAGGAACAUGAGGAUCACCCAUGUAUAGC [Sobiza] (puzzle: Exclusion 4) |  |  | apparent KD of MS2 coat protein [2]: 15.6 nM
22 | CCCUCACAUGAGGAUCACCCAUGUCAGGAUAUCUCAGUGCAUCCACACGGACGCAUCAAGAGAAGGGACAAAAC [Ququ] (Eterna round: R97, puzzle: Exclusion 1) | 27.8 | 18.4 | 
23 | CCCUCACAUGAGGAUCACCCAUGUUAGGAUAUGGGAGGUACCUGCGUGAGCGCACCACCCAGAAGGGACCAGGC [Eternabot (L2) Solution 4] (Eterna round: R97, puzzle: Exclusion 1) | 130 | 159 | 
24 | CCGAAACAUGAGGAUCACCCAUGUCAGGAUAUUCCAAAAUCGUCGAAAGACGAUAACAGAAGAAGGGACAUCGG [Fiskxlusion 1 - Jieux - Exclusion 1] (Eterna round: R97, puzzle: Exclusion 1) | 93.7 | 58 | 
25 | CCGAAUAUGCAGGAUAUCGUAUCGGAGACGAUACGAGAAGGGCAAACAUGAGGAUCACCCAUGUUCCUUAACGG [Mat - Exclusion 6 - Eli Mod - D75] (puzzle: Exclusion 6) |  |  | apparent KD of MS2 coat protein [2]: 15.9 nM
26 | CCGACGUGAGGAUAUCCAUCUGGAUCAGACAAGAUCCUGAUGGAGAAGGCACAUGAGGAUCACCCAUGUUACGG [Mat - Exclusion 4 - Eli Mod - D59] (Eterna round: R97, puzzle: Exclusion 4) | 738 | 412 | 
27 | CCGAUCAGUGUCAGGAUAUCUACAGGACUGCCUCGAGAGAAGGGACAUGAGGAUCACCCAUGUACCCGGGCAAG [BmEX4 B.2] (Eterna round: R97, puzzle: Brourd's mod of Exclusion 4) | 15 | 12.8 | 
28 | CCGAUGUCAGGAUAUAGCGGUCGCUGCCACGGUGGAGUCUGCUAGAAGGGACAUGAGGAUCACCCAUGUCGAAC [Eternabot (Original) Solution 49] (Eterna round: R97, puzzle: Exclusion 4) | 57.7 | 23.4 | 
29 | CCGAUGUCAGGAUAUCGUGCAUACAACGAAAGUUCUAUGUGCGAGAAGGGACAUGAGGAUCACCCAUGUUACGG [Omei Ex4 A2] (Eterna round: R97, puzzle: Exclusion 4) | 131 | 465 | 
30 | CCGCUACAUGAGGAUCACCCAUGUCAGGAUAUCGUACGUUCGUCGAUAGACGAUCGUACGAGAAGGGUGUGCGG [Mat - Exclusion 1 - Eli Mod - D36] (Eterna round: R97, puzzle: Exclusion 1) | 81.4 | 139 | 
31 | CCGCUGUGAGGAUAUUAGUAGUAGUCAGAAAAGACUAUUACUGAGAAGGCACAUGAGGAUCACCCAUGUUGCGG [Mat - Exclusion 4 - Eli Mod - D48] (Eterna round: R97, puzzle: Exclusion 4) | 33.9 | 38.2 | 
32 | CCGGAAAGGAAGGAUAUGCUAGACGAAAGUCUAGCAGAAGGUCCUACAUGAGGAUCACCCAUGUGGUCCUCCGG [Eli x6 4.06] (Eterna round: R97, puzzle: Exclusion 6) | 298 | 1470 | 
33 | CCGGAAAUACAGGAUAUAGGAGUCGAUAGACUCCUAGAAGGGUAUACAUGAGGAUCACCCAUGUGUCCUACCGG [Fiskers Ex 6 - 70] (puzzle: Exclusion 6) |  |  | apparent KD of MS2 coat protein [2]: 22.8 nM
34 | CCGGAACAUGAGGAUCACCCAUGUCAGGAUAUCUCAAAAUCGUCGAAAGACGAUAACAAGAGAAGGGACACCGG [Eli x1 4.30] (Eterna round: R97, puzzle: Exclusion 1) | 20.9 | 16.4 | 
